Measurements from patent US20210047395A1 (Hoffmann-La Roche, published 2021).
Where a chain is given by its changes, count along the chain named. Names and notes keep the numbering of the source. Blank lines part the entries; values can stand above or below the binder they belong to.

Tests used:
[1] = target: T1, VEGF-121-His (inhouse production) (human, UniProt P15692 207-395); assay: VEGF:VEGF-R1 inhibition ELISA (Example 4, as Example 2): 0.34 nM VEGF-121-His pre-incubated with the Fab, then added to plate-bound biotinylated VEGF-R1, anti-His POD detection; blocked partner: VEGF-R1
T1 construct: Treated as one molecule; also called hVEGF-A121; not shown: His tag
T1 sequence: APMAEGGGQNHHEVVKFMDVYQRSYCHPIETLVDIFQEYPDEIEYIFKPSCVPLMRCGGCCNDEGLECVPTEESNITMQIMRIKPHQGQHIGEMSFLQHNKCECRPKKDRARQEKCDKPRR

[2] = target: T1, VEGF-121-His (inhouse production); assay: VEGF:VEGF-R1 inhibition ELISA (Example 4, as Example 2): 0.7 nM VEGF-121-His pre-incubated with the Fab, then added to plate-bound biotinylated VEGF-R1, anti-His POD detection; blocked partner: VEGF-R1
Protocol: Plates were incubated for 1 h at room temperature. […] Plates were incubated for 1 h at room temperature. […] After washing 3 times with 90 μl/well PBST-buffer, 25 μl/well detection antibody (anti His POD, Bethyl, #A190-114P, 1:12000) in 1×OSEP was added. After incubation for 1 h at room temperature plates were washed 3 times with 90 μl PBST-buffer. 25 μl TMB (Roche, #11 835 033 001) was added to all wells simultaneously. After 10 min incubation at room temperature, signals were detected at 370 nm/492 nm on a Tecan Safire 2 Reader.

[3] = target: T2, VEGF (as used in the Biacore active concentration test of Example 6) (Homo sapiens (Human), UniProt P15692 27-147, VEGF is a disulfide-linked homodimer; one protomer is given); assay: Biacore, normalized to unstressed aliquot; Fab stressed 2 w/37 C/pH 7.4
T2 sequence: T1 sequence
Protocol: (§1) Antibody samples were formulated in 20 mM His/HisCl, 140 mM NaCl, pH 6.0, and were split into three aliquots: one aliquot was re-buffered into PBS, respectively, and two aliquots were kept in the original formulation. The PBS aliquot and one His/HisC1 aliquot were incubated for 2 weeks (2 w) at 40° C. (His/NaCl) or 37° C. (PBS) in 1 mg/ml, the PBS sample was incubated further for total 4 weeks (4 w). The third control aliquot sample was stored at −80° C.

[4] = target: T1, VEGF-121-His (inhouse production); assay: SPR, hVEGF-A121 captured by anti-His antibody, 37 C
Protocol: (§2) An anti-His capturing antibody (GE Healthcare 28995056) was immobilized to a Series S Sensor Chip C1 (GE Healthcare 29104990) using standard amine coupling chemistry resulting in a surface densitiy of 500-1000 resonance units (RU). […] The surface was regenerated by injecting 10 mM Glycine pH 1.5 for 60 s. […] Rate constants were calculated using the Langmuir 1:1 binding model within the Biacore Evaluation software.
(§3) The affinity of the antibodies was determined by SPR using the same methods as described in Example 2.

[5] = target: T2, VEGF (as used in the Biacore active …); assay: Biacore, normalized to unstressed aliquot; Fab stressed 4 w/37 C/pH 7.4
Protocol: as §1

[6] = target: T1, VEGF-121-His (inhouse production); assay: SPR, hVEGF-A121 captured by anti-His antibody, 25 C
Protocol: as §2, §3

[7] = target: T2, VEGF (as used in the Biacore active …); assay: Biacore, normalized to unstressed aliquot; Fab stressed 2 w/40 C/pH 6.0
Protocol: as §1

binding result [1]: binds
B1: VEGF-P1AD8674 Fab (Fab, V domains shown)
VH: EVQLVESGGGLVQPGGSLRLSCAASGFTFTNYAMTWVRQAPGKGLEWVSSIGNGGGIYTYYADSVKGRFTISRNNAENTLYLQMNSLRAEDTAVYYCAKGDNLFDSWGPGTLVTVSS
VL: DIQMTQSPASLSASVGDRVTITCRASQSIYSSLNWYQQKPGKAPKLLIYASTLQSGVPSRFSGSASGTDFTLTISSLQPEDVATYYCQQYQNFPRTFGQGTKLEIKR

binding result [2]: binds
B2: VEGF-0112 Fab (Fab, V domains shown)
VH: B1 VH with N53S, N74D, A76S, E77K
VL: B1 VL

VEGF-binding activity after stress (relative active concentration) [3]: 102
Kd [4]: 94 pM
VEGF-binding activity after stress (relative active concentration) [5]: 102
Kd [6]: 119 pM
VEGF-binding activity after stress (relative active concentration) [7]: 102
B3: VEGF-P1AE3519 Fab (Fab, V domains shown)
VH: B1 VH with N53S, N74D, A76W, E77K
VL: B1 VL
notes: Control variant of VEGF-0089 with N52aS in H-CDR2 and S74W in H-FR3 (Kabat)
